# According to patent CN115505041A:
# Biological target: 人EphA2 (human EphA2 on cells: 293T-EphA2 stable line and EphA2-positive tumour lines HCT116, HepG2, HCC827, MDA-MB-231) (human) (UniProt P29317)
# Experiment: FACS on 293T-EphA2 cells, EphrinA1-hFc alone (positive control without hybridoma supernatant), APC anti-human IgG Fc
# UniProt P29317, sequence (P29317 24-976): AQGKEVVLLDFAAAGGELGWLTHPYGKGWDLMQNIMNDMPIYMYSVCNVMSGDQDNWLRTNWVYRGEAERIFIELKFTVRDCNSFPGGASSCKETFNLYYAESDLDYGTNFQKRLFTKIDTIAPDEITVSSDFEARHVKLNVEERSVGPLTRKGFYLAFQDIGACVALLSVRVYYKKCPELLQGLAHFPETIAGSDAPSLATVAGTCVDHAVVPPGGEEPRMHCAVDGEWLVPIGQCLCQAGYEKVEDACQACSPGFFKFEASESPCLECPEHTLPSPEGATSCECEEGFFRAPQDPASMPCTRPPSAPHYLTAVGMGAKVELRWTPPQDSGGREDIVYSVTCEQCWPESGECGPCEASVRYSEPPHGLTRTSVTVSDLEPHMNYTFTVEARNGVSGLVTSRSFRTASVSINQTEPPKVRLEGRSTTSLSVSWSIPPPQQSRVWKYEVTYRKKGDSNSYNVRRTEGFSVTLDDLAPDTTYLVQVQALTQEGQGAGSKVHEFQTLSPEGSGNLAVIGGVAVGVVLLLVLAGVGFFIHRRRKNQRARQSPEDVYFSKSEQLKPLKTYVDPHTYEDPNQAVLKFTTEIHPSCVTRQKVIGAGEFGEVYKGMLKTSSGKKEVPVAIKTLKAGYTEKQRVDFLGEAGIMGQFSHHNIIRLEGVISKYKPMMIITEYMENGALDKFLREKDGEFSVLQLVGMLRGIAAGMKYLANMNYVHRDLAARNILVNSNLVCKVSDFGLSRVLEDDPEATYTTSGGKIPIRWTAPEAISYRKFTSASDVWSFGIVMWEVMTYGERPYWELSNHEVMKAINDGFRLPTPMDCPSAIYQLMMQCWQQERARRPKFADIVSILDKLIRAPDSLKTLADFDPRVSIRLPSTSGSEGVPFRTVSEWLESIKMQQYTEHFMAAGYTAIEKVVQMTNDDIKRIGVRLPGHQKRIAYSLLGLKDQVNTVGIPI
substance,measurement,value
重组EphrinA1-hFc配体蛋白 (recombinant EphrinA1-hFc ligand protein) (Fc fusion),293T-EphA2细胞结合活性,228000
